In patent EP3386536A2 (dated 2018):

Molecular target: T1, human FcγRIIIA F158 (human, UniProt P08637 17-208)
T1 construct: also called CD16a F158 variant
Test: BLI (Octet Red 96), FcγR on anti-his tag biosensor, conjugate in solution, avidity binding model

T1 sequence (P08637 17-208 limits assumed): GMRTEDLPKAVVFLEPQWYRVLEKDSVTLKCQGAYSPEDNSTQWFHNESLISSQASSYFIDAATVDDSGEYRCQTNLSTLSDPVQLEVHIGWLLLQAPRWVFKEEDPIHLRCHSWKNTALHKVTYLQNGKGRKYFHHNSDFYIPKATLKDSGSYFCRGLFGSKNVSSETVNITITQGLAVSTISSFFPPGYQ

fold change against the unconjugated SBT040-G2: ≤ 2 fold
B1: SBT040-G2 ATAC11 (antibody, human IgG2, kappa)
heavy: not shown
light: DIQMTQSPSSVSASVGDRVTITCRASQGIYSWLAWYQQKPGKAPNLLIYTASTLQSGVPSRFSGSGSGTDFTLTISSLQPEDFATYYCQQANIFPLTFGGGTKVEIKRTVAAPSVFIFPPSDEQLKSGTASVVCLLNNFYPREAKVQWKVDNALQSGNSQESVTEQDSKDSTYSLSSTLTLSKADYEKHKVYACEVTHQGLSSPVTKSFNRGEC
modifications: ATAC11 may also sit on light chain cysteines; sites not stated; ATAC11 (maleimide linker with gardiquimod) conjugated by cysteine-based bioconjugation; sites not stated; molar ratio about 4.0
notes: also called SBT-040-G2WT conjugated to ATAC11
